Series [1] deals with T1, Zif268 wildtype (three zinc fingers, phage displayed) (Mus musculus, UniProt P08046 P08046:333-421). In words: ELONA; apparent Kd, phage ELISA, PBS/Zn, RT. In general terms: An ELISA detects its analyte on a solid surface through an enzyme-linked reagent.
Series [2] addresses T1, Zif268 wildtype (three zinc fingers, …). The series is described as follows: ELONA; negative control; apparent Kd; microarray signal 0.052.
Series [3] has the same target. The series is described as follows: apparent Kd interpolated from microarray signal 0.320.
For series [4] the target is unchanged. In words: apparent Kd interpolated from microarray signal 0.372.
The target is the same in series [5]. The series is described as follows: apparent Kd interpolated from microarray signal 0.150.
For series [6] the target is unchanged. In words: apparent Kd interpolated from microarray signal 0.085.

B1: Zif268 site TAG (dsDNA)
DNA 1: TATATAGCGTAGGCGTATATATCAAGTCAATCGGTCC
DNA 2: GGACCGATTGACTTGATATATACGCCTACGCTATATA
modifications: [none]
With B1, the Kd in series [1] was found to be 6.7 nM.

B2: Zif268 site AAA (dsDNA)
DNA 1: TATATAGCGAAAGCGTATATATCAAGTCAATCGGTCC
DNA 2: GGACCGATTGACTTGATATATACGCTTTCGCTATATA
modifications: [none]
On to B2, for which the Kd in series [2] is greater than 5000 nM.

B3: Zif268 site TTG (dsDNA)
DNA 1: TATATAGCGTTGGCGTATATATCAAGTCAATCGGTCC
DNA 2: GGACCGATTGACTTGATATATACGCCAACGCTATATA
modifications: [none]
As to B3, in series [1], the Kd was 71 nM.

B4: Zif268 site CGG (dsDNA)
DNA 1: TATATAGCGCGGGCGTATATATCAAGTCAATCGGTCC
DNA 2: GGACCGATTGACTTGATATATACGCCCGCGCTATATA
modifications: [none]
Regarding B4, the Kd in series [3] worked out at 35 nM.

B5: Zif268 site AGG (dsDNA)
DNA 1: TATATAGCGAGGGCGTATATATCAAGTCAATCGGTCC
DNA 2: GGACCGATTGACTTGATATATACGCCCTCGCTATATA
modifications: [none]
For the molecule B5, the Kd in series [1] amounted to 54 nM.

B6: Zif268 site GGG (dsDNA)
DNA 1: TATATAGCGGGGGCGTATATATCAAGTCAATCGGTCC
DNA 2: GGACCGATTGACTTGATATATACGCCCCCGCTATATA
modifications: [none]
Consider B6, for which the Kd in series [4] turned out to be 28 nM.

B7: Zif268 site CAG (dsDNA)
DNA 1: TATATAGCGCAGGCGTATATATCAAGTCAATCGGTCC
DNA 2: GGACCGATTGACTTGATATATACGCCTGCGCTATATA
modifications: [none]
In the case of B7, the Kd in series [1] is 380 nM.

B8: Zif268 site GAG (dsDNA)
DNA 1: TATATAGCGGAGGCGTATATATCAAGTCAATCGGTCC
DNA 2: GGACCGATTGACTTGATATATACGCCTCCGCTATATA
modifications: [none]
Regarding B8, in series [5], the Kd was determined as 75 nM.

B9: Zif268 site TCG (dsDNA)
DNA 1: TATATAGCGTCGGCGTATATATCAAGTCAATCGGTCC
DNA 2: GGACCGATTGACTTGATATATACGCCGACGCTATATA
modifications: [none]
As for B9, in series [6], the Kd is 180 nM.

Values taken from patent US20040203002 (published 2004).
